From PMC6684798, “Structural basis for the target specificity of actin histidine methyltransferase SETD3” (Nature Communications, 2019)

Key:
SETD3 N255A [1] = target: T1, SETD3 N255A (Homo sapiens, UniProt Q86TU7, N256A); experiment: Steady-state kinetics of SETD3 N255A on K73(66–88) (Fig. 3c; pH 10.5, 37 °C, [N255A] = 90 nM, 40 µM SAM); format: biochemical; settings: relative to WT SETD3, Fig. 3c
T1 construct: GST (cleaved yes); made in house; host or cells: Escherichia coli BL21(DE3) CodonPlus
T1 sequence (Q86TU7 1-594 N256A): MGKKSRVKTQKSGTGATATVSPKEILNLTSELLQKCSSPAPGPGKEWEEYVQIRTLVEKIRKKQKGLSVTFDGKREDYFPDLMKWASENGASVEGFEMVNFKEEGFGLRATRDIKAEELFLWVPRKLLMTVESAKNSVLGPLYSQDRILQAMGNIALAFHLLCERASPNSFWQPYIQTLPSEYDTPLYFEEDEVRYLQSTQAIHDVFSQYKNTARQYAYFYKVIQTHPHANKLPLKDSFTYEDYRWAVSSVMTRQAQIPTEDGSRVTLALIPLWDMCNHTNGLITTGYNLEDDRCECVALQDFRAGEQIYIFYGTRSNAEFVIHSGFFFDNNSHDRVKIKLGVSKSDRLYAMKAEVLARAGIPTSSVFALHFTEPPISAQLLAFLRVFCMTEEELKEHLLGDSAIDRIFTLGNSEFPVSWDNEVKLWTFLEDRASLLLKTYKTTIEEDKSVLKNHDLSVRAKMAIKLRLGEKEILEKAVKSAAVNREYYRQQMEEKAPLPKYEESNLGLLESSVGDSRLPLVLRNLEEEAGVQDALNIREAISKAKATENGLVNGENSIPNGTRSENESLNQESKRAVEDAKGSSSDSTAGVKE
Description: Fig. 3 Kinetics of SETD3 on H73 and K73 peptides. a Comparison of activities of three variants (WT, N255A, and N255V) on H73(66–80) peptide. The assays were performed at room temperature (~22 °C) and pH 8.0 using [WT] = 0.18 μM, [N255A] = 0.18 μM, and [N255V] = 0.72 μM. b Comparison of SETD3 WT activities on two K73 peptides (residues 66–80 and 66–88). The assays were performed at 37 °C and pH 10.5 using [WT] = 3 and 15 μM, respectively, for the long and short peptides. c Comparison of activities of three variants (N255A, N255V, and WT) on K73(66–88) peptide. The assays were performed at 37 °C and pH 10.5 using [N255A] = 90 nM, [N255V] = 0.72 μM and [WT] = 4 μM. Data represent the mean ± SD of N number of independent determinations (N = 3 for the WT and N = 2 for the mutants) performed in duplicate. […]
(§1) Recombinant human SETD3 (pXC2003) was expressed as a GST-fusion[22] in Escherichia coli BL21(DE3) CodonPlus^TM cells (Stratagene). […]
A reaction mixture contained 20 mM Tris/HCl (pH 8.0) or 20 mM glycine/NaOH (pH 10.5), 50 mM NaCl, 0.1 mg/ml BSA, 1 mM DTT, 0.18–15 µM SETD3 (as indicated in Fig. 3), 40 µM SAM and varying concentration of peptides. […] The dependence of the velocity of product formation per enzyme on substrate concentration was analyzed according to the Michaelis–Menten equation.

SETD3 N255A [2] = target: T1, SETD3 N255A; experiment: MALDI-TOF analysis of K73(66–88) methylation by N255A (Fig. 3d); format: biochemical; settings: pH 10.5, 37 °C, 3 μM N255A, 10 µM peptide, 40 µM SAM
Description: Fig. 3 Kinetics of SETD3 on H73 and K73 peptides. a Comparison of activities of three variants (WT, N255A, and N255V) on H73(66–80) peptide. The assays were performed at room temperature (~22 °C) and pH 8.0 using [WT] = 0.18 μM, [N255A] = 0.18 μM, and [N255V] = 0.72 μM. b Comparison of SETD3 WT activities on two K73 peptides (residues 66–80 and 66–88). The assays were performed at 37 °C and pH 10.5 using [WT] = 3 and 15 μM, respectively, for the long and short peptides. c Comparison of activities of three variants (N255A, N255V, and WT) on K73(66–88) peptide. The assays were performed at 37 °C and pH 10.5 using [N255A] = 90 nM, [N255V] = 0.72 μM and [WT] = 4 μM. Data represent the mean ± SD of N number of independent determinations (N = 3 for the WT and N = 2 for the mutants) performed in duplicate. Source data are provided as a Source Data file. d, e Mass spectrometry analysis of K73(66–88) methylation kinetic showing representative spectra at various time points for N255A variant (panel d) and SETD3 WT enzyme (panel e). The assays were performed at 37 °C and pH 10.5 using 3 μM for both N255A and WT. f In vitro methylation reactions with SETD3, indicated full-length actin proteins, and radiolabeled methyl donor (^3H-SAM). Right, Reactions were resolved by SDS–PAGE and activity was visualized by autoradiography. […] The first column head is 'SETD3', and the substrate peptide is printed only on the plot axis. / Panel b: the first column head is 'SETD3 (WT)', and the rows are K73 peptide substrates.
as §1
Actin K73 peptide (residues 66–88) was used as a substrate for SETD3 (Fig. 3d, e). […] We note that samples diluted into a 0.1% (v/v) TFA solution in water could not be detected by MALDI-TOF, thus the acetonitrile additive is necessary.

K73(66–88): K73-containing actin H73K peptide, residues 66–88 (TLKYPIEKGIVTNWDDMEKIWHH; UniProt P60709 66-88, looked up, variant H73K)
activity of N255A on K73 peptide (SETD3 N255A [1]): significantly enhanced activity | K73 methylation product (SETD3 N255A [2]; 10 min): monomethyl lysine | K73 methylation product (SETD3 N255A [2]; 30 min): dimethyl | K73 methylation product (SETD3 N255A [2]; 1 h): complete conversion of unmodified substrate to trimethyl lysine
